Measured values: patent publication US6632633B1, “Process for oxidation of steroids and genetically engineered cells used therein” (Aventis Pharma, S.A., priority 1988, dated 2003)

What was measured:
cytochrome P450SCC = molecular target: T1, cytochrome P450SCC (Bos taurus, UniProt P00189); assay: ADX activity (electron transfer from adrenodoxin reductase to cytochrome P450SCC) in cell-free extracts by P450SCC activity assay; type: biochemical, bovine; conditions: within 15 minutes at 30° C.
T1 construct: 1.5 μM of P450 SCC (purified from bovine adrenal cortex); from tissue; host or cells: bovine adrenal cortex
T1 sequence (P00189 40-520): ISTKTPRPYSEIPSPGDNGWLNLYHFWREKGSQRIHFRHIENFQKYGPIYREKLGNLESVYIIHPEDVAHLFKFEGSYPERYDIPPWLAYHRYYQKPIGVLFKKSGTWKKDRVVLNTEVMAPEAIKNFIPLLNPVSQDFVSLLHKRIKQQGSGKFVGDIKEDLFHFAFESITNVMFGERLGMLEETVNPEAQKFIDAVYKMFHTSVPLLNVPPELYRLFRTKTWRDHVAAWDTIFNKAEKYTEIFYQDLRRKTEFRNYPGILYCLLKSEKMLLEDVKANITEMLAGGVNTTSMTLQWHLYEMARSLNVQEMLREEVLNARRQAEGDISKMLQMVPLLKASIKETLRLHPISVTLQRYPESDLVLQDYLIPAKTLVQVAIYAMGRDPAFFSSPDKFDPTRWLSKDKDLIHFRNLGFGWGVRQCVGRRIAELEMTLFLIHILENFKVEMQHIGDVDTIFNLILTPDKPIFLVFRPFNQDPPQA
Method: K. lactis ADX-102, obtained as described in Example 23, and control strain K. lactis CBS 2360 were grown in 100 ml of YEPD medium (1% yeast extract, 2% peptone, 2% glucose monohydrate) containing 2.5 ml of a 6.7% (w/w) yeast nitrogen base (Difco laboratories) solution and 100 mg 1^−1 of geneticin (G418 sulfate; Gibco Ltd.), for 56 hours at 30° C. The cells were collected by centrifugation (4,000×g, 15 minutes), resuspended in a physiological salt solution and washed with a phosphate buffer (pH 7.0, 50 mM). After centrifugation (4,000×g, 15 minutes), the pellet was resuspended in a phosphate buffer (pH 7.0, 50 mM) resulting in a suspension containing 0.5 g cell wet weight/ml. The cells were disrupted using a Braun MSK Homogenizer (6×15 seconds, 0.45-0.50 mm glass beads) and unbroken cells were removed by centrifugation (4,000×g, 15 minutes). […]
ADX activity, i.e. electrotransfer capacity from adrenodoxin reductase to cytochrome P450SCC, in the cell-free extracts was determined by a P450SCC activity assay. […]
The assay was started by mixing 75 μl of solution A with 50 μl of solution B and 125 μl of cell-free extract or 125 μl of a potassium phosphate buffer (50 mM, pH 7.0) containing 10 μM ADX (purified from bovine adrenal cortex). […] The suspension was heated for 15 minutes at 120° C. and then, the ^14C/^3H ratio was determined by double label liquid scintillation counting. […]

[1] = molecular target: T2, Bovine adrenodoxin (ADX), mature protein with added methionine start, expressed in K. lactis from pGBADX-1 or pGBSCC/ADX-1, P00257
T2 chain: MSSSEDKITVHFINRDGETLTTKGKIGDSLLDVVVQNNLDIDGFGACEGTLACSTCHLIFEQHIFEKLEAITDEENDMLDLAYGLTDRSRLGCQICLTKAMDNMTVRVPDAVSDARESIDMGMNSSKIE

pregnenolone = conditions: after expression in HeLa cells of the respective cDNA's; cited from earlier work
[2] = molecular target: T3, ADX purified from bovine adrenal cortex, P00257
T3 chain: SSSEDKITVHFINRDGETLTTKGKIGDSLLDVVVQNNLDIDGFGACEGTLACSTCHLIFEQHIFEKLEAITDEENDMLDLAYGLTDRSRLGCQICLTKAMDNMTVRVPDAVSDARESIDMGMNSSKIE

B1: purified ADX: adrenodoxin purified from bovine adrenal cortex, 10 μM in buffer (protein)
chain: T3 chain
yield of cholesterol side chain cleavage (cytochrome P450SCC): 50%

B2: Bovine cytochrome P450 side chain cleavage enzyme (P450SCC), mature protein with added methionine start, expressed recombinantly (pGBSCC-5, pGBSCC-17, … (protein)
chain: MISTKTPRPYSEIPSPGDNGWLNLYHFWREKGSQRIHFRHIENFQKYGPIYREKLGNLESVYIIHPEDVAHLFKFEGSYPERYDIPPWLAYHRYYQKPIGVLFKKSGTWKKDRVVLNTEVMAPEAIKNFIPLLNPVSQDFVSLLHKRIKQQGSGKFVGDIKEDLFHFAFESITNVMFGERLGMLEETVNPEAQKFIDAVYKMFHTSVPLLNVPPELYRLFRTKTWRDHVAAWDTIFNKAEKYTEIFYQDLRRKTEFRNYPGILYCLLKSEKMLLEDVKANITEMLAGGVNTTSMTLQWHLYEMARSLNVQEMLREEVLNARRQAEGDISKMLQMVPLLKASIKETLRLHPISVTLQRYPESDLVLQDYLIPAKTLVQVAIYAMGRDPAFFSSPDKFDPTRWLSKDKDLIHFRNLGFGWGVRQCVGRRIAELEMTLFLIHILENFKVEMQHIGDVDTIFNLILTPDKPIFLVFRPFNQDPPQA
cholesterol side-chain cleaving reaction in the presence of NADPH and ADR [1]: cholesterol side-chain cleaving activity was demonstrated in the cell-free extract of K. lactis SCC/ADX-101, whereas the cell-free extract of K. lactis SCC-101, no activity was detectable

B3: type I enzyme: human 3β-hydroxy-5-ene steroid dehydrogenase/5-ene-4-ene isomerase type I, isolated from placenta, also expressed in skin (protein, UniProt P14060 2-373, looked up)
3 beta-hydroxysteroid …: TGWSCLVTGAGGFLGQRIIRLLVKEKELKEIRVLDKAFGPELREEFSKLQNKTKLTVLEGDILDEPFLKRACQDVSVIIHTACIIDVFGVTHRESIMNVNVKGTQLLLEACVQASVPVFIYTSSIEVAGPNSYKEIIQNGHEEEPLENTWPAPYPHSKKLAEKAVLAANGWNLKNGGTLYTCALRPMYIYGEGSRFLSASINEALNNNGILSSVGKFSTVNPVYVGNVAWAHILALRALQDPKKAPSIRGQFYYISDDTPHQSYDNLNYTLSKEFGLRLDSRWSFPLSLMYWIGFLLEIVSFLLRPIYTYRPPFNRHIVTLSNSVFTFSYKKAQRDLAYKPLYSWEEAKQKTVEWVGSLVDRHKETLKSKTQ
Km (pregnenolone): 0.24 µM

B4: type II 3β HSDH: human 3β HSDH type II, isolated from adrenals and gonads (protein, UniProt P26439 1-372, looked up)
3 beta-hydroxysteroid …: MGWSCLVTGAGGLLGQRIVRLLVEEKELKEIRALDKAFRPELREEFSKLQNRTKLTVLEGDILDEPFLKRACQDVSVVIHTACIIDVFGVTHRESIMNVNVKGTQLLLEACVQASVPVFIYTSSIEVAGPNSYKEIIQNGHEEEPLENTWPTPYPYSKKLAEKAVLAANGWNLKNGDTLYTCALRPTYIYGEGGPFLSASINEALNNNGILSSVGKFSTVNPVYVGNVAWAHILALRALRDPKKAPSVRGQFYYISDDTPHQSYDNLNYILSKEFGLRLDSRWSLPLTLMYWIGFLLEVVSFLLSPIYSYQPPFNRHTVTLSNSVFTFSYKKAQRDLAYKPLYSWEEAKQKTVEWVGSLVDRHKETLKSKTQ
Km (pregnenolone): 1.2 µM

B5: P450SCC purified from bovine adrenal cortex (protein)
chain: T1 sequence (P00189 40-520)
side chain cleavage of cholesterol (P450SCC activity assay, 14C/3H ratio) [2]: the side chain of the cholesterol was cleaved within 15 minutes in a yield of 50% | side chain cleavage of cholesterol (P450SCC activity assay, 14C/3H ratio) [1]: the side chain of the cholesterol was cleaved within 15 minutes in a yield of 50%

B6: adrenodoxin reductase purified from bovine adrenal cortex (protein)
chain: STQEQTPQICVVGSGPAGFYTAQHLLKHHSRAHVDIYEKQLVPFGLVRFGVAPDHPEVKNVINTFTQTARSDRCAFYGNVEVGRDVTVQELQDAYHAVVLSYGAEDHQALDIPGEELPGVFSARAFVGWYNGLPENRELAPDLSCDTAVILGQGNVALDVARILLTPPDHLEKTDITEAALGALRQSRVKTVWIVGRRGPLQVAFTIKELREMIQLPGTRPMLDPADFLGLQDRIKEAARPRKRLMELLLRTATEKPGVEEAARRASASRAWGLRFFRSPQQVLPSPDGRRAAGIRLAVTRLEGIGEATRAVPTGDVEDLPCGLVLSSIGYKSRPIDPSVPFDPKLGVVPNMEGRVVDVPGLYCSGWVKRGPTGVITTTMTDSFLTGQILLQDLKAGHLPSGPRPGSAFIKALLDSRGVWPVSFSDWEKLDAEEVSRGQASGKPREKLLDPQEMLRLLGH
side chain cleavage of cholesterol (P450SCC activity assay, 14C/3H ratio) [2]: the side chain of the cholesterol was cleaved within 15 minutes in a yield of 50% | side chain cleavage of cholesterol (P450SCC activity assay, 14C/3H ratio) [1]: the side chain of the cholesterol was cleaved within 15 minutes in a yield of 50%

B7: P450SCC expressed from pre-P450SCC encoding DNA in yeast (pGBSCC-12 in K. lactis, pGBSCC-13 in S. cerevisiae SCC-105) (protein)
chain: MLARGLPLRSALVKACPPILSTVGEGWGHHRVGTGEGAGISTKTPRPYSEIPSPGDNGWLNLYHFWREKGSQRIHFRHIENFQKYGPIYREKLGNLESVYIIHPEDVAHLFKFEGSYPERYDIPPWLAYHRYYQKPIGVLFKKSGTWKKDRVVLNTEVMAPEAIKNFIPLLNPVSQDFVSLLHKRIKQQGSGKFVGDIKEDLFHFAFESITNVMFGERLGMLEETVNPEAQKFIDAVYKMFHTSVPLLNVPPELYRLFRTKTWRDHVAAWDTIFNKAEKYTEIFYQDLRRKTEFRNYPGILYCLLKSEKMLLEDVKANITEMLAGGVNTTSMTLQWHLYEMARSLNVQEMLREEVLNARRQAEGDISKMLQMVPLLKASIKETLRLHPISVTLQRYPESDLVLQDYLIPAKTLVQVAIYAMGRDPAFFSSPDKFDPTRWLSKDKDLIHFRNLGFGWGVRQCVGRRIAELEMTLFLIHILENFKVEMQHIGDVDTIFNLILTPDKPIFLVFRPFNQDPPQA
side chain cleavage of cholesterol (P450SCC activity assay, 14C/3H ratio) [2]: During 3 hours of incubation, 45% of the cholesterol had been converted
